Holding throughout (assay type): cell-based, human
Assay [1] deals with Clone A colon cancer cell line. The assay can be described thus: Matrigel chemoinvasion assay, Clone A cells. The following applies: transient transfection.
Experimental: (§1) Invasion assays were performed using standard methods (see Shaw et al., Cell 91:949-960, 1997) using Transwell chambers coated with Matrigel. Briefly, cells were co-transfected with the indicated NFAT constructs, 1 μg EGFP-N1 (Clontech) and 1 μg pCS2-(n)β-Gal, a •gal expression vector (Dave Turner, University of Michigan) using the Lipofectamine procedure (Life Technologies), and after twenty-four hours, the cells were resuspended in serum-free medium containing 0.1% bovine serum albumin (BSA) and added to each well. […] Cells that stained positive for β-galactosidase expression were counted, and the mean of triplicate assays for each experimental condition was used as % relative invasion.
Another assay has as its system MDA-MB-231 cells. Briefly: Matrigel chemoinvasion assay, MDA-MB-231 cells. Particulars: transient transfection. The text has this: FIGS. 3A-3C show the role of NFAT-5 in mediating carcinoma invasion. FIG. 3A is a graph showing luciferase levels in MDA-MB-435 cells expressing vector alone, β4.ΔCYT (3C12), or wild-type β4^+ (3A7 clone) that were transiently transfected with an NFAT-5-luciferase reporter construct (NFAT-5-luc). Luciferase activity is shown as relative luciferase units. […] The lysates were resolved by SDS PAGE and immunoblotted with anti-NFAT-5 (α-NFAT-5, top panel) or anti-p85 (α-p85, bottom panel) The position of the 175 kDa and 90 kDa markers are indicated (left). […] The ability of the transfected cells to invade Matrigel was then assayed and the data are shown as the relative invasion of NFAT-5-transfected cells compared to vector alone-transfected cells (100%).
Invasion assays were performed using standard methods (see Shaw et al., Cell 91:949-960, 1997) using Transwell chambers coated with Matrigel. […] Cells that stained positive for β-galactosidase expression were counted, and the mean of triplicate assays for each experimental condition was used as % relative invasion. […]

In assay [2] the test system is NFAT-5 transcriptional activity. Briefly: NFAT-5-luc luciferase reporter assay in MDA-MB-435 β4+ (3A7) cells. The following applies: co-transfected with dominant negative NFAT-5 (GFP-ND5). How it is done: FIGS. 4A-4D are graphs showing that NFAT-5 transcriptional activity is induced in an α6β4-dependent manner. FIG. 4A is a graph showing NFAT-5 transcriptional activity in control parental cells, β4 (3A7), and β4.ΔCYT (3C12) MDA-MB-435 transfectants that were transiently transfected with NFAT-5-luc. The cells were grown in complete media for twenty-four hours, trypsinized, incubated with anti-α6 (clone 135-13C) for 30 minutes, then plated onto secondary antibody-coated plates, either in the presence (+) or absence (−) of NIH 3T3 conditioned medium (CM), for twenty-four hours. As a positive control, cells were also stimulated with PMA (phorbol 12-myristate 13-acetate) and ionomycin (100 nM each) for twenty-four hours. Following stimulation, cells were lysed and NFAT-5 transcriptional activity was assayed. […] NFAT-5 transcriptional activity was measured as described above. […] NFAT-5 transcriptional activity was measured as described above. […]
Cells were transiently co-transfected with an NFAT luciferase reporter construct (NFAT-luc, 10 μg) and 1 μg pCS2-(n)β-gal using the Lipofectamine procedure (Life Technologies). Twenty-four hours after the transfection, luciferase and beta-galactosidase assays were performed using standard assays on total cell lysates and measured on a luminometer. […]
In general terms: In a reporter assay the amount or activity of a reporter protein is the signal.

The test system of assay [3] is MDA-MB-435 β4+-expressing cells (3A7). The assay can be described thus: Matrigel chemoinvasion assay, MDA-MB-435 β4+ transfectants. The following applies: transient transfection; NIH 3T3 conditioned media as chemoattractant.
Experimental: Following the transfection protocol, the ability of the transfected cells to invade Matrigel was assayed. The data are shown as the relative invasion of NFAT transfected cells compared to vector alone-transfected cells (100%). The data shown are mean values (±SEM) of 2 experiments performed in triplicate.
as §1

These results are taken from patent US20050100897A1, “NFAT transcription factors in tumor progression” (priority 2002, published 2005).

B1: ND5: dominant negative NFAT-5 mutant, amino acids 1-471 (SEQ ID NO:17) of NFAT5a; blocks dimerization of endogenous NFAT-5 (protein, listed as Homo sapiens)
chain: MGGACSSFTTSSSPTIYSTSVTDSKAMQVESCSSAVGVSNRGVSEKQLTSNTVQQHPSTPKRHTVLYISPPPEDLLDNSRMSCQDEGCGLESEQSCSMWMEDSPSNFSNMSTSSYNDNTEVPRKSRKRNPKQRPGVKRRDCEESNMDIFDADSAKAPHYVLSQLTTDNKGNSKAGNGTLENQKGTGVKKSPMLCGQYPVKSEGKELKIVVQPETQHRARYLTEGSRGSVKDRTQQGFPTVKLEGHNEPVVLQVFVGNDSGRVKPHGFYQACRVTGRNTTPCKEVDIEGTTVIEVGLDPSNNMTLAVDCVGILKLRNADVEARIGIAGSKKKSTRARLVFRVNIMRKDGSTLTLQTPSSPILCTQPAGVPEILKKSLHSCSVKGEEEVFLIGKNFLKGTKVIFQENVSDENSWKSEAEIDMELFHQNHLIVKVPPYHDQHITLPVSVGIYVVTNAGRSHDVQPFTYTPDPAA
On to B1, for which the “carcinoma invasion (relative invasion vs vector alone)” value (in assay [1]; with MDA-MB-231 cells; in assay [3]) was “significantly inhibited invasion” throughout. For the same molecule, the “co-stimulated NFAT-5 transcriptional activity (α6β4 + conditioned media, or PMA/ionomycin)” value in assay [2] is given as “inhibited”.
